Molecular target: Soluble, trimeric spike of SARS-CoV-2/human/China/Wuhan-Hu-1/2019 (residues 1-1204, 6 proline mutations) (SARS-CoV-2) (UniProt P0DTC2)
Test: SEC

Question: Which stoichiometry N does the source give for “Soluble, trimeric spike of SARS-CoV-2/human/China/Wuhan-Hu-1/2019 (residues 1-1204, 6 proline mutations) (from UniProt P0DTC2 14-1204) (domain or fragment)” here?
Answer: Its stoichiometry N is 3.
